Laboratory results: publication PMC4615246 (Nucleus, 2015)
Like-named read-outs stand apart in the source and are kept apart here.

What was measured:
[1] = target: T1, LacI-CFP-Nup53 (human, UniProt Q8NFH5 1-326); assay: LacI/LacO array recruitment in cells
T1 sequence: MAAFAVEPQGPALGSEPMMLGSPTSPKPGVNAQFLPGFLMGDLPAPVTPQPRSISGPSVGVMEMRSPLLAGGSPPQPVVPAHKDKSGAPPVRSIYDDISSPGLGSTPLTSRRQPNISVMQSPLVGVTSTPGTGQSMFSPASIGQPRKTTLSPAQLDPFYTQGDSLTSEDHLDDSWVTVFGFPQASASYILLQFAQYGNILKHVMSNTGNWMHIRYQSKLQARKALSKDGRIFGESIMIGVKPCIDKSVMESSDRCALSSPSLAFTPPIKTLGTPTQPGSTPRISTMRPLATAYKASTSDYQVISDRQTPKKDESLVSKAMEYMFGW

[2] = target: T1, LacI-CFP-Nup53; assay: LacI/LacO array recruitment in cells; remark: listed apart in the source

percent of transfected cells showing colocalization [1]: 63%
percent of transfected cells showing colocalization [2]: 67%
B1: Nup93 (endogenous) (natural protein)
chain: MDTEGFGELLQQAEQLAAETEGISELPHVERNLQEIQQAGERLRSRTLTRTSQETADVKASVLLGSRGLDISHISQRLESLSAATTFEPLEPVKDTDIQGFLKNEKDNALLSAIEESRKRTFGMAEEYHRESMLVEWEQVKQRILHTLLASGEDALDFTQESEPSYISDVGPPGRSSLDNIEMAYARQIYIYNEKIVNGHLQPNLVDLCASVAELDDKSISDMWTMVKQMTDVLLTPATDALKNRSSVEVRMEFVRQALAYLEQSYKNYTLVTVFGNLHQAQLGGVPGTYQLVRSFLNIKLPAPLPGLQDGEVEGHPVWALIYYCMRCGDLLAASQVVNRAQHQLGEFKTWFQEYMNSKDRRLSPATENKLRLHYRRALRNNTDPYKRAVYCIIGRCDVTDNQSEVADKTEDYLWLKLNQVCFDDDGTSSPQDRLTLSQFQKQLLEDYGESHFTVNQQPFLYFQVLFLTAQFEAAVAFLFRMERLRCHAVHVALVLFELKLLLKSSGQSAQLLSHEPGDPPCLRRLNFVRLLMLYTRKFESTDPREALQYFYFLRDEKDSQGENMFLRCVSELVIESREFDMILGKLENDGSRKPGVIDKFTSDTKPIINKVASVAENKGLFEEAAKLYDLAKNADKVLELMNKLLSPVVPQISAPQSNKERLKNMALSIAERYRAQGISANKFVDSTFYLLLDLITFFDEYHSGHIDRAFDIIERLKLVPLNQESVEERVAAFRNFSDEIRHNLSEVLLATMNILFTQFKRLKGTSPSSSSRPQRVIEDRDSQLRSQARTLITFAGMIPYRTSGDTNARLVQMEVLMN
